Experimental data: patent US20070055049A1

Experiments:
HLA-A*0201 (human) [1] = conditions: remark: other sources report otherwise
HLA-A*0201 (human) [2] = assay: inhibition curve with unlabeled peptide, purified A2.1; conditions: remark: other sources report otherwise
[3] = target: HLA-A3.2 (product of the A*0301 gene) (human)
HLA-A*0201 (human) [4] = assay: competitive inhibition, purified HLA-A2.1
HLA-A*0201 (human) [5] = assay: competitive inhibition, purified HLA-A2.1, reference peptide
HLA-A*0201 (human) [6] = assay: competitive inhibition of the radiolabeled peptide, purified HLA, average
HLA-A*0203 (human) = assay: as above
HLA-A*0201 (human) [7] = assay: competitive inhibition, purified HLA-A2.1, standard reference peptide

B1: HBc 18-27 peptide, P03146 18-27 (peptide)
peptide: FLPSDFFPSV
modifications: not checked
HLA-A*0201 (human) [1]
  percent of radiolabeled peptide bound: 95%
HLA-A*0201 (human) [2]
  IC50: 25 nM
[3]
  IC50: > 30000 nM

B2: HBV pol 538 peptide (peptide)
peptide: YMDDVVLGA
modifications: not checked
HLA-A*0201 (human) [4]
  IC50: 200 nM

B3: HBV core 18-27 F6>Y analog peptide (peptide)
peptide: FLPSDYFPSV
modifications: not checked
HLA-A*0201 (human) [5]
  IC50: 5 nM
HLA-A*0201 (human) [6]
  IC50: 5 nM
HLA-A*0203 (human)
  IC50: 10 nM
HLA-A*0201 (human) [7]
  IC50: 5 nM
